Measured values published in the RNAGym collection of RNA variant scans (doi:10.7554/elife.90254).

B1: LINE1-full (parent)
chain: UACGUAGGUGGUUUUCCCCUGAUAGUGCUAAGGGGGCCUGGAAGUUUGGACUGGGCAGAGCUCAACACAGCGUGGCAAAGUGGCUGUGGCUAGACUGCCUCUCUGGAUUCCUCGUCACUCAGCAGGGCAUCUCUGAGAGAAAUGCC

Variants of: B1
Test: self-cleavage, relative activity (ratio to wild type); higher = more cleavage; in vitro, sequencing; the parent is a self-cleaving ribozyme

Variant	self-cleavage
UACGUAGGUGGUUUUCCCCUGAUAGUGCUAAGGGGGCCUGGAAGUUUGGACUGGGCAGAGCUCAACACAGCGUGGCAAAGUGGCUGCGGCUAGACUGCCUCUCUGGAUUCCUCGUCACUCAGCAGGGCAUCUCUGAGAGAAAUGCU [U87C C146U]	0.34
UACGUAGGUGGUUUUCCCCUGAUAGUGCUAAGGGGGCCUGGAAGUUUGGACUGGGCAGAGCUCAACACAGCGUGGCAAAGUGGCUGCGGCUAGACUGCCUCUCUAGAUUCCUCGUCACUCAGCAGGGCAUCUCUGAGAGAAAUGCC [U87C G105A]	0.14
UACGUAGGUGGUUUUCCCCUGAUAGUGCUAAGGGGGCCUGGAAGUUUGGACUGGGCAGAGCUCAACACAGCGUGGCAAAGUGGCUGCGGCUAGACUGCCUCUCUGGAUUCCUCAUCACUCAGCAGGGCAUCUCUGAGAGAAAUGCC [U87C G114A]	0.23
UACGUAGGUGGUUUUCCCCUGAUAGUGCUAAGGGGGCCUGGAAGUUUGGACUGGGCAGAGCUCAACACAGCGUGGCAAAGUGGCUGCGGCUAGACUGCCUCUCUGGAUUCCUCUUCACUCAGCAGGGCAUCUCUGAGAGAAAUGCC [U87C G114U]	0.19
UACGUAGGUGGUUUUCCCCUGAUAGUGCUAAGGGGGCCUGGAAGUUUGGACUGGGCAGAGCUCAACACAGCGUGGCAAAGUGGCUGCGGCUAGACUGCCUCUCUGGAUUCCUCGUCACUCAGCAGUGCAUCUCUGAGAGAAAUGCC [U87C G126U]	0.3
UACGUAGGUGGUUUUCCCCUGAUAGUGCUAAGGGGGCCUGGAAGUUUGGACUGGGCAGAGCUCAACACAGCGUGGCAAAGUGGCUGCGGCAAGACUGCCUCUCUGGAUUCCUCGUCACUCAGCAGGGCAUCUCUGAGAGAAAUGCC [U87C U91A]	0.2
UACGUAGGUGGUUUUCCCCUGAUAGUGCUAAGGGGGCCUGGAAGUUUGGACUGGGCAGAGCUCAACACAGCGUGGCAAAGUGGCUGCGGCCAGACUGCCUCUCUGGAUUCCUCGUCACUCAGCAGGGCAUCUCUGAGAGAAAUGCC [U87C U91C]	0.31
UACGUAGGUGGUUUUCCCCUGAUAGUGCUAAGGGGGCCUGGAAGUUUGGACUGGGCAGAGCUCAACACAGCGUGGCAAAGUGGCUGCGGCUAGACCGCCUCUCUGGAUUCCUCGUCACUCAGCAGGGCAUCUCUGAGAGAAAUGCC [U87C U96C]	0.27
UACGUAGGUGGUUUUCCCCUGAUAGUGCUAAGGGGGCCUGGAAGUUUGGACUGGGCAGAGCUCAACACAGCGUGGCAAAGUGGCUGCGGCUAGACUGCCUCCCUGGAUUCCUCGUCACUCAGCAGGGCAUCUCUGAGAGAAAUGCC [U87C U102C]	0.36
UACGUAGGUGGUUUUCCCCUGAUAGUGCUAAGGGGGCCUGGAAGUUUGGACUGGGCAGAGCUCAACACAGCGUGGCAAAGUGGCUGCGGCUAGACUGCCUCUCAGGAUUCCUCGUCACUCAGCAGGGCAUCUCUGAGAGAAAUGCC [U87C U104A]	0.09
UACGUAGGUGGUUUUCCCCUGAUAGUGCUAAGGGGGCCUGGAAGUUUGGACUGGGCAGAGCUCAACACAGCGUGGCAAAGUGGCUGCGGCUAGACUGCCUCUCCGGAUUCCUCGUCACUCAGCAGGGCAUCUCUGAGAGAAAUGCC [U87C U104C]	0.22
UACGUAGGUGGUUUUCCCCUGAUAGUGCUAAGGGGGCCUGGAAGUUUGGACUGGGCAGAGCUCAACACAGCGUGGCAAAGUGGCUGCGGCUAGACUGCCUCUCUGGAAUCCUCGUCACUCAGCAGGGCAUCUCUGAGAGAAAUGCC [U87C U108A]	0.15
UACGUAGGUGGUUUUCCCCUGAUAGUGCUAAGGGGGCCUGGAAGUUUGGACUGGGCAGAGCUCAACACAGCGUGGCAAAGUGGCUGCGGCUAGACUGCCUCUCUGGACUCCUCGUCACUCAGCAGGGCAUCUCUGAGAGAAAUGCC [U87C U108C]	0.24
UACGUAGGUGGUUUUCCCCUGAUAGUGCUAAGGGGGCCUGGAAGUUUGGACUGGGCAGAGCUCAACACAGCGUGGCAAAGUGGCUGCGGCUAGACUGCCUCUCUGGAUUCCUCGACACUCAGCAGGGCAUCUCUGAGAGAAAUGCC [U87C U115A]	0.17
UACGUAGGUGGUUUUCCCCUGAUAGUGCUAAGGGGGCCUGGAAGUUUGGACUGGGCAGAGCUCAACACAGCGUGGCAAAGUGGCUGCGGCUAGACUGCCUCUCUGGAUUCCUCGCCACUCAGCAGGGCAUCUCUGAGAGAAAUGCC [U87C U115C]	0.31
UACGUAGGUGGUUUUCCCCUGAUAGUGCUAAGGGGGCCUGGAAGUUUGGACUGGGCAGAGCUCAACACAGCGUGGCAAAGUGGCUGCGGCUAGACUGCCUCUCUGGAUUCCUCGUCACUCAGCAGGGCAACUCUGAGAGAAAUGCC [U87C U130A]	0.19
UACGUAGGUGGUUUUCCCCUGAUAGUGCUAAGGGGGCCUGGAAGUUUGGACUGGGCAGAGCUCAACACAGCGUGGCAAAGUGGCUGCGGCUAGACUGCCUCUCUGGAUUCCUCGUCACUCAGCAGGGCACCUCUGAGAGAAAUGCC [U87C U130C]	0.35
UACGUAGGUGGUUUUCCCCUGAUAGUGCUAAGGGGGCCUGGAAGUUUGGACUGGGCAGAGCUCAACACAGCGUGGCAAAGUGGCUGCGGCUAGACUGCCUCUCUGGAUUCCUCGUCACUCAGCAGGGCAUCACUGAGAGAAAUGCC [U87C U132A]	0.33
UACGUAGGUGGUUUUCCCCUGAUAGUGCUAAGGGGGCCUGGAAGUUUGGACUGGGCAGAGCUCAACACAGCGUGGCAAAGUGGCUGCGGCUAGACUGCCUCUCUGGAUUCCUCGUCACUCAGCAGGGCAUCUCAGAGAGAAAUGCC [U87C U134A]	0.18
UACGUAGGUGGUUUUCCCCUGAUAGUGCUAAGGGGGCCUGGAAGUUUGGACUGGGCAGAGCUCAACACAGCGUGGCAAAGUGGCUGGGGCUAGGCUGCCUCUCUGGAUUCCUCGUCACUCAGCAGGGCAUCUCUGAGAGAAAUGCC [U87G A94G]	0

Variant	self-cleavage
UACGUAGGUGGUUUUCCCCUGAUAGUGCUAAGGGGGCCUGGAAGUUUGGACUGGGCAGAGCUCAACACAGCGUGGCAAAGUGGCUGGGGCUAGACUGCCUCUCUGGAUUCCUCGUCCCUCAGCAGGGCAUCUCUGAGAGAAAUGCC [U87G A117C]	0.31
UACGUAGGUGGUUUUCCCCUGAUAGUGCUAAGGGGGCCUGGAAGUUUGGACUGGGCAGAGCUCAACACAGCGUGGCAAAGUGGCUGGGGCUAGACUGCCUCUCUGGAUUCCUCGUCACUCAGCGGGGCAUCUCUGAGAGAAAUGCC [U87G A124G]	0.31
UACGUAGGUGGUUUUCCCCUGAUAGUGCUAAGGGGGCCUGGAAGUUUGGACUGGGCAGAGCUCAACACAGCGUGGCAAAGUGGCUGGGGCUAGACUGCCUCUCUGGAUUCCUCGUCACUCAGCUGGGCAUCUCUGAGAGAAAUGCC [U87G A124U]	0.17
UACGUAGGUGGUUUUCCCCUGAUAGUGCUAAGGGGGCCUGGAAGUUUGGACUGGGCAGAGCUCAACACAGCGUGGCAAAGUGGCUGGGGCUAGACUGCCUCUCUGGAUUCCUCGUCACUCAGCAGGGCAUCUCUGUGAGAAAUGCC [U87G A136U]	0.18
UACGUAGGUGGUUUUCCCCUGAUAGUGCUAAGGGGGCCUGGAAGUUUGGACUGGGCAGAGCUCAACACAGCGUGGCAAAGUGGCUGGGGCUAGACUGCCUCUCUGGAUUCCUCGUCACUCAGCAGGGCAUCUCUGAGAGUAAUGCC [U87G A140U]	0.13
UACGUAGGUGGUUUUCCCCUGAUAGUGCUAAGGGGGCCUGGAAGUUUGGACUGGGCAGAGCUCAACACAGCGUGGCAAAGUGGCUGGGGCUAGACUGCCUCUCUGGAUUCCUCGUCACUCAGCAGGGCAUCUCUGAGAGAAGUGCC [U87G A142G]	0.25
UACGUAGGUGGUUUUCCCCUGAUAGUGCUAAGGGGGCCUGGAAGUUUGGACUGGGCAGAGCUCAACACAGCGUGGCAAAGUGGCUGGGGCUAGACUGCCUCUCUGGAUUCCUCGUCAUUCAGCAGGGCAUCUCUGAGAGAAAUGCC [U87G C118U]	0.17
UACGUAGGUGGUUUUCCCCUGAUAGUGCUAAGGGGGCCUGGAAGUUUGGACUGGGCAGAGCUCAACACAGCGUGGCAAAGUGGCUGGGGCUAGACUGCCCCUCUGGAUUCCUCGUCACUCAGCAGGGCAUCUCUGAGAGAAAUGCC [U87G U100C]	0.28
UACGUAGGUGGUUUUCCCCUGAUAGUGCUAAGGGGGCCUGGAAGUUUGGACUGGGCAGAGCUCAACACAGCGUGGCAAAGUGGCUGGGGCUAGACUGCCUCUCUGGAUUCCUCGCCACUCAGCAGGGCAUCUCUGAGAGAAAUGCC [U87G U115C]	0.03
UACGUAGGUGGUUUUCCCCUGAUAGUGCUAAGGGGGCCUGGAAGUUUGGACUGGGCAGAGCUCAACACAGCGUGGCAAAGUGGCUGGGGCUAGACUGCCUCUCUGGAUUCCUCGUCACGCAGCAGGGCAUCUCUGAGAGAAAUGCC [U87G U119G]	0.3
UACGUAGGUGGUUUUCCCCUGAUAGUGCUAAGGGGGCCUGGAAGUUUGGACUGGGCAGAGCUCAACACAGCGUGGCAAAGUGGCUGGGGCUAGACUGCCUCUCUGGAUUCCUCGUCACUCAGCAGGGCAUCUCUGAGAGAAAAGCC [U87G U143A]	0.22
UACGUAGGUGGUUUUCCCCUGAUAGUGCUAAGGGGGCCUGGAAGUUUGGACUGGGCAGAGCUCAACACAGCGUGGCAAAGUGGCUGGGGCUAGACUGCCUCUCUGGAUUCCUCGUCACUCAGCAGGGCAUCUCUGAGAGAAACGCC [U87G U143C]	0.18
UACGUAGGUGGUUUUCCCCUGAUAGUGCUAAGGGGGCCUGGAAGUUUGGACUGGGCAGAGCUCAACACAGCGUGGCAAAGUGGCUGUAGCUAGACUGCCUCUCUGGAUUCCUCGUCACUCAGCAGGGCAUCUCUGAGAGAAAUGCC [G88A]	0.04
UACGUAGGUGGUUUUCCCCUGAUAGUGCUAAGGGGGCCUGGAAGUUUGGACUGGGCAGAGCUCAACACAGCGUGGCAAAGUGGCUGUAGCUGGACUGCCUCUCUGGAUUCCUCGUCACUCAGCAGGGCAUCUCUGAGAGAAAUGCC [G88A A92G]	0.02
UACGUAGGUGGUUUUCCCCUGAUAGUGCUAAGGGGGCCUGGAAGUUUGGACUGGGCAGAGCUCAACACAGCGUGGCAAAGUGGCUGUAGCUAGACUGCCUCUCUGGAUUCCUCGUCACUCUGCAGGGCAUCUCUGAGAGAAAUGCC [G88A A121U]	0.04
UACGUAGGUGGUUUUCCCCUGAUAGUGCUAAGGGGGCCUGGAAGUUUGGACUGGGCAGAGCUCAACACAGCGUGGCAAAGUGGCUGUAGCUAGACUGCCUCUCUGGAUUCCUCGUCACUCAGCGGGGCAUCUCUGAGAGAAAUGCC [G88A A124G]	0.06
UACGUAGGUGGUUUUCCCCUGAUAGUGCUAAGGGGGCCUGGAAGUUUGGACUGGGCAGAGCUCAACACAGCGUGGCAAAGUGGCUGUAGCUAGACUGCCUCUCUGGAUUCCUCGUCACUCAGCAGGGCGUCUCUGAGAGAAAUGCC [G88A A129G]	0.07
UACGUAGGUGGUUUUCCCCUGAUAGUGCUAAGGGGGCCUGGAAGUUUGGACUGGGCAGAGCUCAACACAGCGUGGCAAAGUGGCUGUAGCUAGACUGCCUCUCUGGAUUCCUCGUCACUCAGCAGGGCAUCUCUGAGAGGAAUGCC [G88A A140G]	0.08
UACGUAGGUGGUUUUCCCCUGAUAGUGCUAAGGGGGCCUGGAAGUUUGGACUGGGCAGAGCUCAACACAGCGUGGCAAAGUGGCUGUAGCUAGACUGCCUCUCUGGAUUCCUCGUCACUCAGCAGGGCAUCUCUGAGAGAGAUGCC [G88A A141G]	0.08
